Experimental data as given in paper PMC7015237, “mTORC1 signalling is not essential for the maintenance of muscle mass and function in adult sedentary mice” (Journal of Cachexia, Sarcopenia and Muscle, 2019).

Biological target: T1, eukaryotic translation initiation factor 4E (mouse (endogenous in gastrocnemius …, UniProt P63073 1-217))
T1 construct: eukaryotic translation initiation factor 4E (eIF4E), mouse, endogenous in gastrocnemius muscle; also called eIF4E; source: endogenous, mouse gastrocnemius muscle lysate (3 month iRAmKO and control mice)
Assay: pull-down; m7GTP-agarose beads on 400 ug gastrocnemius lysate of 3 month iRAmKO (raptor-depleted) and control mice, overnight at 4°C; lysis buffer 20 mM Hepes pH 7.4, 50 mM KCl, 0.2 mM EDTA, 0.5% Triton X-100; western blot for eIF4E and 4E-BP1; 4E-BP1 normalised to eIF4E
Conditions: partners not purified

T1 sequence (P63073 whole entry): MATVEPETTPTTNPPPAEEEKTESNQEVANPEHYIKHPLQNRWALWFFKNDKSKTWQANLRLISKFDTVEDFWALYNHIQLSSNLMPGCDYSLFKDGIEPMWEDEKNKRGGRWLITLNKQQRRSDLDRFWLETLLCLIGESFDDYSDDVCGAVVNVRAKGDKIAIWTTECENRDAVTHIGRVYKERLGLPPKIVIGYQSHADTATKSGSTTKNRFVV

B1: eukaryotic translation initiation factor 4E-binding protein 1 (natural protein, UniProt Q60876 1-117, looked up)
chain: MSAGSSCSQTPSRAIPTRRVALGDGVQLPPGDYSTTPGGTLFSTTPGGTRIIYDRKFLMECRNSPVAKTPPKDLPAIPGVTSPTSDEPPMQASQSQLPSSPEDKRAGGEESQFEMDI
notes: Phosphorylation of 4E-BP1 (S65) is lower in iRAmKO muscle than in controls; the phosphorylation state of the pulled-down protein was not determined; also called 4E-BP1; source: endogenous, mouse gastrocnemius muscle lysate (3 month iRAmKO and control mice)
  fold change of the ratio of 4E-BP1 to eIF4E in the m7GTP pulldown, iRAmKO against control mice: 2.5 fold
